Reference: IntAct's records for PubMed 35512704

B1: Mothers against decapentaplegic homolog 4 (Homo sapiens), Q13485 (parent)
chain: MDNMSITNTPTSNDACLSIVHSLMCHRQGGESETFAKRAIESLVKKLKEKKDELDSLITAITTNGAHPSKCVTIQRTLDGRLQVAGRKGFPHVIYARLWRWPDLHKNELKHVKYCQYAFDLKCDSVCVNPYHYERVVSPGIDLSGLTLQSNAPSSMMVKDEYVHDFEGQPSLSTEGHSIQTIQHPPSNRASTETYSTPALLAPSESNATSTANFPNIPVASTSQPASILGGSHSEGLLQIASGPQPGQQQNGFTGQPATYHHNSTTTWTGSRTAPYTPNLPHHQNGHLQHHPPMPPHPGHYWPVHNELAFQPPISNHPAPEYWCSIAYFEMDVQVGETFKVPSSCPIVTVDGYVDPSGGDRFCLGQLSNVHRTEAIERARLHIGKGVQLECKGEGDVWVRCLSDHAVFVQSYYLDREAGRAPGDAVHKIYPSAYIKVFDLRQCHRQMQQQAATAQAAAAAQAAAVAGNIPGPGSVGGIAPAISLSAAAGIGVDDLRRLCILRMSFVKGWGPDYPRQSIKETPCWIEIHLHRALQLLDEVLHTMPIADPQPLD
partner: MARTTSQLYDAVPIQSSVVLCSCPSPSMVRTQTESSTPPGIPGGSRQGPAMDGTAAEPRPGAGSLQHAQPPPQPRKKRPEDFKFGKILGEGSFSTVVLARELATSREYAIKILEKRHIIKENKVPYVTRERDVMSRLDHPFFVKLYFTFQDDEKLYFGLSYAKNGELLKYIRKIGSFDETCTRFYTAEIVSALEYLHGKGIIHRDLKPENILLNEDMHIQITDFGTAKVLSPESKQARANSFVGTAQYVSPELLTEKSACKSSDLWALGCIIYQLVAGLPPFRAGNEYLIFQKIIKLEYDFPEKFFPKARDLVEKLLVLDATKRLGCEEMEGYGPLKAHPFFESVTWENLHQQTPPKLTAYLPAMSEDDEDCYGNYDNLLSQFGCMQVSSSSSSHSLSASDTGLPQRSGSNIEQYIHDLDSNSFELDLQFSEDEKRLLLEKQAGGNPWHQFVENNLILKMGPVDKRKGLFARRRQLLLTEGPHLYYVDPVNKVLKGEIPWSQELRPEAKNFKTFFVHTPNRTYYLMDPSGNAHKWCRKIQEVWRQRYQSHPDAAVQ
B2: Speckle-type POZ protein (Homo sapiens), O43791 (parent)
chain: MSRVPSPPPPAEMSSGPVAESWCYTQIKVVKFSYMWTINNFSFCREEMGEVIKSSTFSSGANDKLKWCLRVNPKGLDEESKDYLSLYLLLVSCPKSEVRAKFKFSILNAKGEETKAMESQRAYRFVQGKDWGFKKFIRRDFLLDEANGLLPDDKLTLFCEVSVVQDSVNISGQNTMNMVKVPECRLADELGGLWENSRFTDCCLCVAGQEFQAHKAILAARSPVFSAMFEHEMEESKKNRVEINDVEPEVFKEMMCFIYTGKAPNLDKMADDLLAAADKYALERLKVMCEDALCSNLSVENAAEILILADLHSADQLKTQAVDFINYHASDVLETSGWKSMVVSHPHLVAEAYRSLASAQCPFLGPPRKRLKQS
partner: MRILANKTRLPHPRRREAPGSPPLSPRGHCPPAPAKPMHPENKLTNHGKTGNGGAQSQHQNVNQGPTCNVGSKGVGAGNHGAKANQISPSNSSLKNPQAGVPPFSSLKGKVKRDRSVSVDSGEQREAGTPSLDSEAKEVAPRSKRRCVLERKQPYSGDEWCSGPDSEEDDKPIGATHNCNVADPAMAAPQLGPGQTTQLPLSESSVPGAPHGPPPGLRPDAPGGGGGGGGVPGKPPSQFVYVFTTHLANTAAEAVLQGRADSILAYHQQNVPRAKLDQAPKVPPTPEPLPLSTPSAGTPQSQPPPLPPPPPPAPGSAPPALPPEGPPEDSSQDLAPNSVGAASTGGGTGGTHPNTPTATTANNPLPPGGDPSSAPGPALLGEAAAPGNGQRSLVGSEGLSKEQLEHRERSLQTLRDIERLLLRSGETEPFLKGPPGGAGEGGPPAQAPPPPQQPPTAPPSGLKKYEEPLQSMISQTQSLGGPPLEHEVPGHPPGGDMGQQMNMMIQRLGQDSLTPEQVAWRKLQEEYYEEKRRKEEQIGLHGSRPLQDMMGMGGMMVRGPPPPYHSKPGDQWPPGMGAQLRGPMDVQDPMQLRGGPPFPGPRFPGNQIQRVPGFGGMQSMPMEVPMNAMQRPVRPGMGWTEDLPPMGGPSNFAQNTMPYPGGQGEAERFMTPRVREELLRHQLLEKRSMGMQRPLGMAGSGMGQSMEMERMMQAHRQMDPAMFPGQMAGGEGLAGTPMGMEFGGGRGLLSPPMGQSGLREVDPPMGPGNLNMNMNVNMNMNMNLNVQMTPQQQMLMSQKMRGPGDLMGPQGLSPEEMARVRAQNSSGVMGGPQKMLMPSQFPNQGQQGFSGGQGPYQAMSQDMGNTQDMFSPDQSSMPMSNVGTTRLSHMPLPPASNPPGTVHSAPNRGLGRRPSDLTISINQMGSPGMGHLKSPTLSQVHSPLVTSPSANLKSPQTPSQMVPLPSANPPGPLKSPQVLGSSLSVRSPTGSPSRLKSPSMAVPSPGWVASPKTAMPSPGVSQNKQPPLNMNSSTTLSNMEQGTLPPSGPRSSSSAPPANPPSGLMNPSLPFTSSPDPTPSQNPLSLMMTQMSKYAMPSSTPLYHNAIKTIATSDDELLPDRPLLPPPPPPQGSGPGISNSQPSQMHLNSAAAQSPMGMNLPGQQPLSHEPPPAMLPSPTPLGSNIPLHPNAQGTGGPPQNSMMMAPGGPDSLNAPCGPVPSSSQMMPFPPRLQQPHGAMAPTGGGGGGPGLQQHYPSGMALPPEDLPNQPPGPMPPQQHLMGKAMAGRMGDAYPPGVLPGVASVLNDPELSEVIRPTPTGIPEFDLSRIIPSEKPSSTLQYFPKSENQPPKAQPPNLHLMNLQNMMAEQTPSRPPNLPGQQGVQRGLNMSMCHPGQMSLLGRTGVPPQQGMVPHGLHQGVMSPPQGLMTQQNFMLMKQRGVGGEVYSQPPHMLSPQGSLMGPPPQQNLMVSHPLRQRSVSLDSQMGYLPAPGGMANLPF
B3: Mothers against decapentaplegic homolog 4 (Homo sapiens), Q13485 (parent)
chain: B1 chain
partner: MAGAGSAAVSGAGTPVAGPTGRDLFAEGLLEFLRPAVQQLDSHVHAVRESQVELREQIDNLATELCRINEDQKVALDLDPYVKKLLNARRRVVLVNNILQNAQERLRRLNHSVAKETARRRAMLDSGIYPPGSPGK
B4: Mothers against decapentaplegic homolog 4 (Homo sapiens), Q13485 (parent)
chain: B1 chain
partner: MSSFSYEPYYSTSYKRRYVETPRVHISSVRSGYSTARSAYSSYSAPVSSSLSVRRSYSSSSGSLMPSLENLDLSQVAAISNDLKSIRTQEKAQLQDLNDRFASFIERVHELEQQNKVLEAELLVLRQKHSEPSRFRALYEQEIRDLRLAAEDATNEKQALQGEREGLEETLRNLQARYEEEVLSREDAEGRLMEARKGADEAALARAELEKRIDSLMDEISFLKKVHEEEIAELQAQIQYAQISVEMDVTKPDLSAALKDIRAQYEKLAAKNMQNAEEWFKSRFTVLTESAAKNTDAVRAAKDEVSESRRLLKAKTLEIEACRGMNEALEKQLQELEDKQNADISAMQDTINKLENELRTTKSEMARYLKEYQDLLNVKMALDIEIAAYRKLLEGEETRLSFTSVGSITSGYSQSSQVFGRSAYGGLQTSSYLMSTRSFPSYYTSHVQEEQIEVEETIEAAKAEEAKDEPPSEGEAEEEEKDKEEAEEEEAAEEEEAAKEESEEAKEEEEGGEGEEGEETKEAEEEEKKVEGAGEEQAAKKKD
B5: Mothers against decapentaplegic homolog 4 (Homo sapiens), Q13485 (parent)
chain: B1 chain
partner: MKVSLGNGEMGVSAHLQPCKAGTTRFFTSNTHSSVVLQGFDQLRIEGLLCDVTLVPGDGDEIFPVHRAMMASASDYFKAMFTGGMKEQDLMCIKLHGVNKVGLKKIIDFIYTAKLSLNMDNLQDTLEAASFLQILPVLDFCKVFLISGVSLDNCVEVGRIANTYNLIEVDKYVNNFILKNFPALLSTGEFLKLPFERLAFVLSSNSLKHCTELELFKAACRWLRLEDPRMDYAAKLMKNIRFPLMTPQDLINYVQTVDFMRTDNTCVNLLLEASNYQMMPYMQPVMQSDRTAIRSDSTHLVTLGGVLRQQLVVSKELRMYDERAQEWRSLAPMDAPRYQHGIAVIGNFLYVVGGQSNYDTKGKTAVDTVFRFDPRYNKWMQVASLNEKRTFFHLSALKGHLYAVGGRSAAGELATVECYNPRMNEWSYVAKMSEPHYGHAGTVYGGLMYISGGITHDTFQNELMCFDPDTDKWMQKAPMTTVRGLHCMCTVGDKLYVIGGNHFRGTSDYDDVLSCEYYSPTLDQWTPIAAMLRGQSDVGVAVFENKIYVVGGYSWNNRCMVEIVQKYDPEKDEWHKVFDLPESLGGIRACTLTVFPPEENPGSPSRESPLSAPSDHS

Variants of: B1
Conditions: with pdpk1_human PDPK1, O15530

R361H was tested. Which “effect of a mutation on the interaction” value did it give?
The value was “with no effect”.

Variants of: B2
Conditions: with bcl9l_human BCL9L

How did the “effect of a mutation on the interaction” value turn out when MSRVPSPPPPAEMSSGPVAESWCYTQIKVVKFSYMWTINNFSFCREEMGEVIKSSTFSSGANDKLKWCLRVNPKGLDEESKDYLSLYLLLVSCPKSEVRAKCKFSILNAKGEETKAMESQRAYRFVQGKDWGFKKFIRRDFLLDEANGLLPDDKLTLFCEVSVVQDSVNISGQNTMNMVKVPECRLADELGGLWENSRFTDCCLCVAGQEFQAHKAILAARSPVFSAMFEHEMEESKKNRVEINDVEPEVFKEMMCFIYTGKAPNLDKMADDLLAAADKYALERLKVMCEDALCSNLSVENAAEILILADLHSADQLKTQAVDFINYHASDVLETSGWKSMVVSHPHLVAEAYRSLASAQCPFLGPPRKRLKQS [F102C] was run?
The value was “with no effect”.

Variants of: B3
Conditions: with snapn_human SNAPIN

Which “effect of a mutation on the interaction” value does the source give for R361H here?
The value was “with no effect”.

Variants of: B4
Conditions: with nfl_human NEFL

Which “effect of a mutation on the interaction” value does the source give for G386D here?
The value was “with no effect”.

Variants of: B5
Conditions: with klhl9_human KLHL9, Q9P2J3

Which “effect of a mutation on the interaction” value does the source give for G386D here?
Its value is “with no effect”.

Variants of: B5
Conditions: with klhl9_human KLHL9, Q9P2J3
Remark: another data set of the same source

With G386D as the variant, how does the “effect of a mutation on the interaction” value read?
The value was “increasing interaction strength”.
